The target of this assay is His6-tagged Rev-A IN (reticuloendotheliosis virus strain A integrase) (reticuloendotheliosis virus strain A (Rev-A)).
Sequence of His6-tagged Rev-A IN (reticuloendotheliosis virus strain A integrase) (reticuloendotheliosis virus strain A (Rev-A)) (P03360 752-1152 limits assumed): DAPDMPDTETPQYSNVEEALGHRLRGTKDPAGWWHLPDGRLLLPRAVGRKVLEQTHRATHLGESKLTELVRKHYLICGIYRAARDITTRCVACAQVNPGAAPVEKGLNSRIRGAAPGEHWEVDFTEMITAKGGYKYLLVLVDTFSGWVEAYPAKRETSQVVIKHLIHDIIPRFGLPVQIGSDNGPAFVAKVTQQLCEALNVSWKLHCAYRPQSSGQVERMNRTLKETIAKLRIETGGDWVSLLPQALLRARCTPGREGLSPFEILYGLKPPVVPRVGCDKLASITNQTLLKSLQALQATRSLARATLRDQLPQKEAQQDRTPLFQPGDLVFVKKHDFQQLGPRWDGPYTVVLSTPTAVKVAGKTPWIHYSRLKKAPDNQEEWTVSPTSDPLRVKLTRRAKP

On to “BRD4(462-720), C-terminal fragment of human BRD4 that contains the ET domain (from UniProt O60885-2 462-720) (domain or fragment)”, for which the concerted integration (DNA strand transfer) activity of Rev-A IN in vitro with 0.05, 0.15, 0.35, 0.5 μM BRD4 (462–720), against the activity without BRD4 protein stood at 5 fold.

Source of the values: publication PMC4422553.
